Assay results: patent publication US12303551B2, “Cellular immunotherapy compositions and uses thereof” (CERO THERPEUTICS HOLDINGS, INC., priority 2018, dated 2025)

Experiments:
SCC152 target cells = experiment: Phagocytosis of SCC152 by CD4+ T cell/CER, fluorescence microscopy with hybrid capture; assay type: cell-based; conditions: TRAF-domain CERs, 4 hours, 1:1:0.5 (CD8:CD4:target cell); versus CD4+ control + CD8+/E7 TCR
Method: (§1) FIG. 28 is a bar graph representing quantification of CD4+ T cell-CER mediated phagocytosis of SCC152 target cells. Results calculated as ((number of phagocytic target events)/(total number of effectors))*100 from 3×3 40× images, 4 hours after initiation of co-culture assay. CD8+ T cells transduced with HPV16 E7 TCR and CD4+ T cells transduced with selected CERs (CER5, CER17, CER19, CER21, CER23, CER26, CER27, CER103b, CER104, CER105, CER106, or CER116) were co-cultured with SCC152 squamous head and neck carcinoma target cells at a 1:1:0.5 ratio for 4 hours and imaged.
as §1, with “29” for “28”, “(median area ratio” for “((number”, “of” for “of phagocytic”, “events in effector cells*% phagocytosis)” for “events)/(total number of effectors))*100”
(§2) FIG. 55 is a bar graph representing quantification of CD4+ T cell-CER mediated phagocytosis of SCC152 target cells. Percent phagocytosis was calculated as ((number of phagocytic target events)/(total number of effector cells))*100. These numbers were calculated from 3×3 images captured by Keyence BZ-X710 fluorescence microscope at 40× resolution, 4 hours after initiation of co-culture assay. CD8+ T cells transduced with HPV16 E7 TCR and CD4+ T cells transduced with a selected CER (CER29, CER30, CER110, CER112, CER113, CER114, CER116, or CER117) were co-cultured with SCC152 target cells at a 1:1:0.5 ratio (CD8:CD4:target cell) for 4 hours and imaged.
as §2, with “56” for “55”, “Adjusted phagocytic index” for “Percent phagocytosis”, “(median area ratio” for “((number”, “of” for “of phagocytic”, “events in” for “events)/(total number of”, “cells*% phagocytosis).” for “cells))*100.”
Phagocytic activity of CD4+ T cell/CER+CD8+ T cell/HPV16 E7 TCR combinations co-cultured with SCC152 cells was visualized and quantified using KEYENCE BZ-X710 fluorescence microscope, […] and hybrid capture software.

SCC152 cells = experiment: Elimination of GFP-expressing SCC152 target cells over time (quantification and time lapse imaging); assay type: cell-based; conditions: for elimination of SCC152 cells, time lapse imaging: 0 to 36 hrs, compared to the control; for elimination of SCC152 cells (GFP quantification): by 36 hrs, 1:1:1 ratio (CD8:CD4:target cell), compared to control
Method in brief: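 GFP-labelled SCC152 (HPV16+) target cells were co-cultured at 1:1:1 with CD8+ T cells carrying an HPV16 E7 TCR and with CD4+ T cells transduced with a chimeric CER or a control. Remaining target cells were counted by fluorescence imaging and automated software at 0, 12, 24, 36 h or 0, 24, 48 h.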

| Molecule | engulfment of SCC152 target cells (percent phagocytosis, adjusted phagocytic index) (SCC152 target cells) | elimination of SCC152 cells, time lapse imaging (SCC152 cells) | elimination of SCC152 cells (GFP quantification) (SCC152 cells) |
| --- | --- | --- | --- |
| CER112: Chimeric engulfment receptor: Tim4 binding, Tim4 transmembrane, TRAF6 and NFAM1 signaling; SEQ ID NO: 148 (protein, CER112, amino acids 1-22 are signal peptide) MSKGLLLLWLVTELWWLYLTPAASEDTIIGFLGQPVTLPCHYLSWSQSRNSMCWGKGSCPNSKCNAELLRTDGTRIISRKSTKYTLLGKVQFGEVSLTISNTNRGDSGVYCCRIEVPGWFNDVKKNVRLELRRATTTKKPTTTTRPTTTPYVTTTTPELLPTTVMTTSVLPTTTPPQTLATTAFSTAVTTCPSTTPGSFSQETTKGSAFTTESETLPASNHSQRSMMTISTDIAVLRPTGSNPGILPSTSQLTTQKTTLTTSESLQKTTKSHQINSRQTILIIACCVGFVLMVLLFLAFLMSLLNCENSCGSSQSESDCCVAMASSCSAVTKDDSVGGTASTGNLSSSFMEEIQGYDVEFDPPLESKYECPICLMALREAVQTPCGHRFCKACIIKSIRDAGHKCPVDNEILLENQLFPDNFAKREILSLMVKCPNEGCLHKMELRHLEDHQAHCEFALMDCPQCQRPFQKFHINIHILKDCPRRQVSCDNCAASMAFEDKEIHDQNCPLANVICEYCNTILIREQMPNHYDLDCPTAPIPCTFSTFGCHEKMQRNHLARHLQENTQSHMRMLALWNKKRMRGPGKDPTRKCPDPRSASSPKQHPSESVYTALQRRETEVYACIENEDGSSPTAKQSPLSQERPHRFEDDGELNLVYENL | enhanced engulfment | enhanced elimination of SCC152 cells | nearly complete elimination |
| CER113: Chimeric engulfment receptor: Tim4 binding, Tim4 transmembrane, TRAF6 and Baff-R signaling; SEQ ID NO: 149 (protein, CER113, amino acids 1-22 are signal peptide) MSKGLLLLWLVTELWWLYLTPAASEDTIIGFLGQPVTLPCHYLSWSQSRNSMCWGKGSCPNSKCNAELLRTDGTRIISRKSTKYTLLGKVQFGEVSLTISNTNRGDSGVYCCRIEVPGWFNDVKKNVRLELRRATTTKKPTTTTRPTTTPYVTTTTPELLPTTVMTTSVLPTTTPPQTLATTAFSTAVTTCPSTTPGSFSQETTKGSAFTTESETLPASNHSQRSMMTISTDIAVLRPTGSNPGILPSTSQLTTQKTTLTTSESLQKTTKSHQINSRQTILIIACCVGFVLMVLLFLAFLMSLLNCENSCGSSQSESDCCVAMASSCSAVTKDDSVGGTASTGNLSSSFMEEIQGYDVEFDPPLESKYECPICLMALREAVQTPCGHRFCKACIIKSIRDAGHKCPVDNEILLENQLFPDNFAKREILSLMVKCPNEGCLHKMELRHLEDHQAHCEFALMDCPQCQRPFQKFHINIHILKDCPRRQVSCDNCAASMAFEDKEIHDQNCPLANVICEYCNTILIREQMPNHYDLDCPTAPIPCTFSTFGCHEKMQRNHLARHLQENTQSHMRMLASWRRRQRRLRGASSAEAPDGDKDAPEPLDKVIILSPGISDATAPAWPPPGEDPGTTPPGHSVPVPATELGSTELVTTKTAGPEQQ | enhanced engulfment | enhanced elimination of SCC152 cells | nearly complete elimination |
| CER114: Chimeric engulfment receptor: Tim4 binding, Tim4 transmembrane, TRAF6 and MERTK signaling; SEQ ID NO: 150 (protein, CER114, amino acids 1-22 are signal peptide) MSKGLLLLWLVTELWWLYLTPAASEDTIIGFLGQPVTLPCHYLSWSQSRNSMCWGKGSCPNSKCNAELLRTDGTRIISRKSTKYTLLGKVQFGEVSLTISNTNRGDSGVYCCRIEVPGWFNDVKKNVRLELRRATTTKKPTTTTRPTTTPYVTTTTPELLPTTVMTTSVLPTTTPPQTLATTAFSTAVTTCPSTTPGSFSQETTKGSAFTTESETLPASNHSQRSMMTISTDIAVLRPTGSNPGILPSTSQLTTQKTTLTTSESLQKTTKSHQINSRQTILIIACCVGFVLMVLLFLAFLMSLLNCENSCGSSQSESDCCVAMASSCSAVTKDDSVGGTASTGNLSSSFMEEIQGYDVEFDPPLESKYECPICLMALREAVQTPCGHRFCKACIIKSIRDAGHKCPVDNEILLENQLFPDNFAKREILSLMVKCPNEGCLHKMELRHLEDHQAHCEFALMDCPQCQRPFQKFHINIHILKDCPRRQVSCDNCAASMAFEDKEIHDQNCPLANVICEYCNTILIREQMPNHYDLDCPTAPIPCTFSTFGCHEKMQRNHLARHLQENTQSHMRMLAALRRRVQETKFGGAFSEEDSQLVVNYRAKKSFCRRAIELTLQSLGVSEELQNKLEDVVIDRNLLVLGKVLGEGEFGSVMEGNLKQEDGTSQKVAVKTMKLDNFSQREIEEFLSEAACMKDFNHPNVIRLLGVCIELSSQGIPKPMVILPFMKYGDLHTFLLYSRLNTGPKYIHLQTLLKFMMDIAQGMEYLSNRNFLHRDLAARNCMLRDDMTVCVADFGLSKKIYSGDYYRQGRIAKMPVKWIAIESLADRVYTSKSDVWAFGVTMWEITTRGMTPYPGVQNHEMYDYLLHGHRLKQPEDCLDELYDIMYSCWSADPLDRPTFSVLRLQLEKLSESLPDAQDKESIIYINTQLLESCEGIANGPSLTGLDMNIDPDSIIASCTPGAAVSVVTAEVHENNLREERYILNGGNEEWEDVSSTPFAAVTPEKDGVLPEDRLTKNGVSWSHHSTLPLGSPSPDELLFVDDSLEDSEVLM | enhanced engulfment | enhanced elimination of SCC152 cells | nearly complete elimination |
